Changes are numbered by the printed parent chain.
B1: P32蛋白单克隆抗体,细胞株编号701 (antibody, V domains shown)
VH: QSAPGLVQASQCLSITCTVSGFSLTTYAVHWVRQPPGQGLEWQGVIWSGGRTDYNAAFMCRLSISKDNSNSQDFFKMNSLQADDTAIYYCARNYYGGSLDYWGQGTTLTVSS
VL: DIVLTQTPASLAVSLGQRATISSRASNSVSTSRYSYMHWNQQKPGQPPRLLIYLVSNLESGVPARFSGSGSGTDFTLNIHPVEEEDAATYYCQHIRELTFGGGTKLEIK
B2: P32蛋白单克隆抗体,细胞株编号901 (antibody, V domains shown)
VH: QVQLNQSGPGLVQPSQSLSITCTLSGFSLTTYAVHWVRQSPGKGLEWLGVIWIGGRTDYNAAFISRLSISKDNSKSQVFFEMNSLQPNDTAIYYCARNYYGGSFDYWGQGTTLTVS
VL: B1 VL with T7S, S23Y, A25D, N27K, R33G

Tests used:
[1] = molecular target: 牛结节性皮肤病病毒(LSDV) P32蛋白,原核表达,去掉C端跨膜区 (Lumpy skin disease virus (LSDV)); test: ELISA of the ascites-purified monoclonal antibody on P32
[2] = molecular target: 牛结节性皮肤病病毒(LSDV) P32蛋白,原核表达,去掉C端跨膜区 (Lumpy skin disease virus (LSDV))

| Binder | ELISA效价 (titer (1:dilution)) [1] | 检测限 [2] |
| --- | --- | --- |
| B1 | > 128000 | 10 ng/mL |
| B2 | > 128000 | 10 ng/mL |

Reference: patent publication CN112111006A
